These sequences were tested against Hck (UniProt P08631) (assay: phosphorylation enrichment, bacterial display (enrichment ratio); higher = better substrate or ligand; peptides without Tyr show the background).
Chain of Hck (P08631 whole entry, looked up): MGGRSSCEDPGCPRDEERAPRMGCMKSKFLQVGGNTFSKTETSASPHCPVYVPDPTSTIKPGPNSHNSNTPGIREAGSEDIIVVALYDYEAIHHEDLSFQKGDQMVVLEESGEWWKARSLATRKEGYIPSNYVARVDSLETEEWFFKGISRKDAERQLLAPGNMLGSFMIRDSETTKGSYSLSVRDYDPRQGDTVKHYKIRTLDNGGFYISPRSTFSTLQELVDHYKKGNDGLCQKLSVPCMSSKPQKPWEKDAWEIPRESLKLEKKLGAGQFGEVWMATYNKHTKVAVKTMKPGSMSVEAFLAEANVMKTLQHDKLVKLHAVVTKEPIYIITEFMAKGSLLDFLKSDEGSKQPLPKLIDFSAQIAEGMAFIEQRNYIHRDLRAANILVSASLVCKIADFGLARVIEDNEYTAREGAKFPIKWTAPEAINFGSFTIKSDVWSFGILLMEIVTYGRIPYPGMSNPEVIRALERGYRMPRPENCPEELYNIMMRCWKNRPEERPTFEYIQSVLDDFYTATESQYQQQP
For RSFSPCDFQPC [TNS1_Y796_Y796C_YF], the phosphorylation enrichment was 0.786. GESVSYLFSHV [PRPS1_Y311] showed a phosphorylation enrichment of 0.473. Sequence ASELGYVFQAI [UROD_Y133] has a phosphorylation enrichment of 0.378. For GFEVVYVTEPI [HSP90AB1_Y512_M513V], the phosphorylation enrichment was 0.549. With FKIFRYTLNDN [FN1_Y1975_L1974R_YF] the phosphorylation enrichment was 0.464. For SVTCTYSPALT [TP53_Y126_N131T], the phosphorylation enrichment was 0.694. For AALKLYHVSDS [VIL1_Y256], the phosphorylation enrichment was 0.623. TFHNTYHSQMR [IL1RAPL1_Y615] gave a phosphorylation enrichment of 0.434. For DGLASYLDKVR [KRT12_Y139_R135G], the phosphorylation enrichment was 0.375. For LSIQTYSALNF [DES_Y423_P419S], the phosphorylation enrichment was 6.9. TPLSAYQIPRT [GAB2_Y324] showed a phosphorylation enrichment of 0.29. In the case of ADNQRYAFMPL [TMEM87B_Y460_N456D], the phosphorylation enrichment is reported as 0.628. Work on TGILLYGLASR [QARS1_Y57] yielded a phosphorylation enrichment of 1.22. TVLEPYADPYY [ZC3H18_Y367] was tested, and the phosphorylation enrichment was 0.834. Sequence WQQQSYLDSGS [CTNNB1_Y30_I35S] has a phosphorylation enrichment of 0.45. DPHQQYFIAMD [TBX15_Y159_YF] was tested, and the phosphorylation enrichment was 0.544. VMIYAYLLHRG [PTEN_Y138_C136Y] showed a phosphorylation enrichment of 0.697. In the case of SGPRRYNIAAL [TTR_Y125_T126N], the phosphorylation enrichment is reported as 0.43. EQLRAYLEGEC [HLA-C_Y183_T187E] was tested, and the phosphorylation enrichment was 0.533. Work on HQNGTYGLHQD [SGSH_Y89_M88T] yielded a phosphorylation enrichment of 0.753. With KYVKMCDNHQL [MYO9A_Y203_Y203C] the phosphorylation enrichment was 0.432. Sequence RLLVLYPWTQR [HBB_Y36_V35L] has a phosphorylation enrichment of 0.782. In the case of IGMSSYVMLAS [GGCX_Y301_F299S], the phosphorylation enrichment is reported as 0.452. DTCPPYVLSQV [GJB4_Y237_G242V] showed a phosphorylation enrichment of 0.606. Sequence TGTQLYGRFGS [ITGA2B_Y384] has a phosphorylation enrichment of 7.54. NPSYNYEIVNQ [DYNC1H1_Y3379_R3384Q] gave a phosphorylation enrichment of 0.497. SFLSYYTSHVQ [NEFL_Y443_P440L] showed a phosphorylation enrichment of 0.794. Work on DDKQPYEKKAE [HMGB1_Y144_A149E] yielded a phosphorylation enrichment of 0.579. IRTDAYVQAMT [RPE65_Y89_R91Q] gave a phosphorylation enrichment of 0.608. MSIWPYLQKID [MFSD8_Y63] was tested, and the phosphorylation enrichment was 0.468. With NGRTGYVLQPE [PLCG2_Y1036] the phosphorylation enrichment was 0.474. DGKFSYLKVGH [GRM3_Y480_G475D_YF] showed a phosphorylation enrichment of 0.337. In the case of YRIGPYQPNVP [MATR3_Y784], the phosphorylation enrichment is reported as 0.486.

What follows are sequences tested against Jak2 (UniProt O60674) in the same assay as above.
Chain of Jak2 (O60674 whole entry, looked up): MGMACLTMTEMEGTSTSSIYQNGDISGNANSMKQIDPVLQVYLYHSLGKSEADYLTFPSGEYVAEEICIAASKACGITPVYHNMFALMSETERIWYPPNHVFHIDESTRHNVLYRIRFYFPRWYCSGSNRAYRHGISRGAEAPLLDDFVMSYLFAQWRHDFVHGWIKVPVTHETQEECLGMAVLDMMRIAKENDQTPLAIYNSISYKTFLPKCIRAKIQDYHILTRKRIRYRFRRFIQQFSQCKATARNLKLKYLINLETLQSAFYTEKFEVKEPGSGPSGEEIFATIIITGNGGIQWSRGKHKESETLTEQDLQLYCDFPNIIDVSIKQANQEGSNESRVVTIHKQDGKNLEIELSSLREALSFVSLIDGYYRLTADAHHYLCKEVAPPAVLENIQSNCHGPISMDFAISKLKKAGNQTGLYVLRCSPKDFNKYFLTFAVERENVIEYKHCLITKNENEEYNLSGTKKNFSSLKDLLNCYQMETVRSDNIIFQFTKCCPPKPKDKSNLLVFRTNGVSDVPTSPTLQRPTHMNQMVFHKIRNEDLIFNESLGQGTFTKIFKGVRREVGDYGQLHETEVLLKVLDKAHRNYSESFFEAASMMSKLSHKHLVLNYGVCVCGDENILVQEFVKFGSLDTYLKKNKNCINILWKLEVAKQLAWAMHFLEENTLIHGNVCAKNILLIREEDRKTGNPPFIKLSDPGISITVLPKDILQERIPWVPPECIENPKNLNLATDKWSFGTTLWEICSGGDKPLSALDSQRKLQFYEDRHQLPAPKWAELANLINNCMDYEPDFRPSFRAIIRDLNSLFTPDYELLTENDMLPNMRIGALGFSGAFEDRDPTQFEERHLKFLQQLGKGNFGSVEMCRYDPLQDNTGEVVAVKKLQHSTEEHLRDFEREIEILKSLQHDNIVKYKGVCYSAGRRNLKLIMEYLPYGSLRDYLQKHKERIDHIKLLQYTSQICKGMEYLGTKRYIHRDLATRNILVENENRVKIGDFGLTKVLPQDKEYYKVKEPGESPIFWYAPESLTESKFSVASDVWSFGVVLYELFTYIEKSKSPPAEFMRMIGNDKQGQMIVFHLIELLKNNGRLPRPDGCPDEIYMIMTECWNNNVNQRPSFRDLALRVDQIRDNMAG
RSFSPCDFQPC [TNS1_Y796_Y796C_YF] gave a phosphorylation enrichment of 0.705. With GESVSYLFSHV [PRPS1_Y311] the phosphorylation enrichment was 0.847. ASELGYVFQAI [UROD_Y133] showed a phosphorylation enrichment of 0.924. With GFEVVYVTEPI [HSP90AB1_Y512_M513V] the phosphorylation enrichment was 0.983. FKIFRYTLNDN [FN1_Y1975_L1974R_YF] showed a phosphorylation enrichment of 1.01. SVTCTYSPALT [TP53_Y126_N131T] showed a phosphorylation enrichment of 1.6. In the case of AALKLYHVSDS [VIL1_Y256], the phosphorylation enrichment is reported as 0.635. For TFHNTYHSQMR [IL1RAPL1_Y615], the phosphorylation enrichment was 0.849. DGLASYLDKVR [KRT12_Y139_R135G] was tested, and the phosphorylation enrichment was 0.631. LSIQTYSALNF [DES_Y423_P419S] was tested, and the phosphorylation enrichment was 1.76. Work on TPLSAYQIPRT [GAB2_Y324] yielded a phosphorylation enrichment of 0.615. With ADNQRYAFMPL [TMEM87B_Y460_N456D] the phosphorylation enrichment was 0.673. TGILLYGLASR [QARS1_Y57] showed a phosphorylation enrichment of 0.937. Work on TVLEPYADPYY [ZC3H18_Y367] yielded a phosphorylation enrichment of 1.58. WQQQSYLDSGS [CTNNB1_Y30_I35S] gave a phosphorylation enrichment of 0.581. DPHQQYFIAMD [TBX15_Y159_YF] gave a phosphorylation enrichment of 1.06. Work on VMIYAYLLHRG [PTEN_Y138_C136Y] yielded a phosphorylation enrichment of 0.733. SGPRRYNIAAL [TTR_Y125_T126N] was tested, and the phosphorylation enrichment was 0.511. EQLRAYLEGEC [HLA-C_Y183_T187E] gave a phosphorylation enrichment of 1.14. HQNGTYGLHQD [SGSH_Y89_M88T] was tested, and the phosphorylation enrichment was 0.459. Work on KYVKMCDNHQL [MYO9A_Y203_Y203C] yielded a phosphorylation enrichment of 0.491. For RLLVLYPWTQR [HBB_Y36_V35L], the phosphorylation enrichment was 0.702. IGMSSYVMLAS [GGCX_Y301_F299S] showed a phosphorylation enrichment of 1.66. With DTCPPYVLSQV [GJB4_Y237_G242V] the phosphorylation enrichment was 0.969. TGTQLYGRFGS [ITGA2B_Y384] showed a phosphorylation enrichment of 0.608. For NPSYNYEIVNQ [DYNC1H1_Y3379_R3384Q], the phosphorylation enrichment was 0.754. SFLSYYTSHVQ [NEFL_Y443_P440L] gave a phosphorylation enrichment of 2.1. With DDKQPYEKKAE [HMGB1_Y144_A149E] the phosphorylation enrichment was 0.921. Work on IRTDAYVQAMT [RPE65_Y89_R91Q] yielded a phosphorylation enrichment of 0.529. In the case of MSIWPYLQKID [MFSD8_Y63], the phosphorylation enrichment is reported as 0.627. NGRTGYVLQPE [PLCG2_Y1036] showed a phosphorylation enrichment of 0.566. DGKFSYLKVGH [GRM3_Y480_G475D_YF] gave a phosphorylation enrichment of 0.599. In the case of YRIGPYQPNVP [MATR3_Y784], the phosphorylation enrichment is reported as 0.44.

Each sequence was assayed against MERTK (UniProt Q12866) in the same assay as above.
Chain of MERTK (Q12866 whole entry, looked up): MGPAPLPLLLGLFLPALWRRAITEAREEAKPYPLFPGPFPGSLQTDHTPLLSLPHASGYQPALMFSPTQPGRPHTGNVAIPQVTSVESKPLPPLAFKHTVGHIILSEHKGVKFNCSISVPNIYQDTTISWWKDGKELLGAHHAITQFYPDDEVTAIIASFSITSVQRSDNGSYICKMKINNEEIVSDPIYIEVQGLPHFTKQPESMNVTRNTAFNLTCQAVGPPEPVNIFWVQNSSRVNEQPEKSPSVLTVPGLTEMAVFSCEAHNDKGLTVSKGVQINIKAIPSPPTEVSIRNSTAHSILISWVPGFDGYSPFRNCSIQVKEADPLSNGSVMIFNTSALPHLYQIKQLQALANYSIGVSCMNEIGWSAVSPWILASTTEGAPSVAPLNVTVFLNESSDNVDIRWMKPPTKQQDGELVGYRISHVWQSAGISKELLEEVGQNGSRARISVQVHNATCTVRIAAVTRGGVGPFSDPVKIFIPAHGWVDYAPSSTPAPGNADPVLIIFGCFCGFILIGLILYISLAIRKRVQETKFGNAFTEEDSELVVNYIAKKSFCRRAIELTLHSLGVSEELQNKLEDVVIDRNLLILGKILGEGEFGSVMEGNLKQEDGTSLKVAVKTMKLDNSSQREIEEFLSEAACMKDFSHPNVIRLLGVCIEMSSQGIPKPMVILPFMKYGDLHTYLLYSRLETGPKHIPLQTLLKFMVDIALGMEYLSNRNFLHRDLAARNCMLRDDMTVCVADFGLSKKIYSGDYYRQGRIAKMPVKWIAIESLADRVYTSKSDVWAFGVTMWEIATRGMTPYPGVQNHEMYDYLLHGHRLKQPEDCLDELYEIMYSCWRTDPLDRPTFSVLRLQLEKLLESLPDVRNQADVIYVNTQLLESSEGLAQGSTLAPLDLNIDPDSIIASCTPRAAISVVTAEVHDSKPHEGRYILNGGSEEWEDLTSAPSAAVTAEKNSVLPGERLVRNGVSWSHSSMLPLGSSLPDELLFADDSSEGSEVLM
In the case of RSFSPCDFQPC [TNS1_Y796_Y796C_YF], the phosphorylation enrichment is reported as 0.643. With GESVSYLFSHV [PRPS1_Y311] the phosphorylation enrichment was 0.421. For ASELGYVFQAI [UROD_Y133], the phosphorylation enrichment was 0.264. GFEVVYVTEPI [HSP90AB1_Y512_M513V] showed a phosphorylation enrichment of 0.386. FKIFRYTLNDN [FN1_Y1975_L1974R_YF] was tested, and the phosphorylation enrichment was 0.377. For SVTCTYSPALT [TP53_Y126_N131T], the phosphorylation enrichment was 0.432. For AALKLYHVSDS [VIL1_Y256], the phosphorylation enrichment was 0.847. TFHNTYHSQMR [IL1RAPL1_Y615] gave a phosphorylation enrichment of 0.402. DGLASYLDKVR [KRT12_Y139_R135G] was tested, and the phosphorylation enrichment was 0.415. For LSIQTYSALNF [DES_Y423_P419S], the phosphorylation enrichment was 6.97. TPLSAYQIPRT [GAB2_Y324] showed a phosphorylation enrichment of 0.703. In the case of ADNQRYAFMPL [TMEM87B_Y460_N456D], the phosphorylation enrichment is reported as 6.67. For TGILLYGLASR [QARS1_Y57], the phosphorylation enrichment was 1.79. In the case of TVLEPYADPYY [ZC3H18_Y367], the phosphorylation enrichment is reported as 0.712. In the case of WQQQSYLDSGS [CTNNB1_Y30_I35S], the phosphorylation enrichment is reported as 0.397. With DPHQQYFIAMD [TBX15_Y159_YF] the phosphorylation enrichment was 0.511. In the case of VMIYAYLLHRG [PTEN_Y138_C136Y], the phosphorylation enrichment is reported as 0.591. In the case of SGPRRYNIAAL [TTR_Y125_T126N], the phosphorylation enrichment is reported as 0.411. Work on EQLRAYLEGEC [HLA-C_Y183_T187E] yielded a phosphorylation enrichment of 0.51. In the case of HQNGTYGLHQD [SGSH_Y89_M88T], the phosphorylation enrichment is reported as 0.414. Work on KYVKMCDNHQL [MYO9A_Y203_Y203C] yielded a phosphorylation enrichment of 0.447. Sequence RLLVLYPWTQR [HBB_Y36_V35L] has a phosphorylation enrichment of 0.541. IGMSSYVMLAS [GGCX_Y301_F299S] gave a phosphorylation enrichment of 0.878. DTCPPYVLSQV [GJB4_Y237_G242V] was tested, and the phosphorylation enrichment was 0.432. TGTQLYGRFGS [ITGA2B_Y384] gave a phosphorylation enrichment of 0.732. With NPSYNYEIVNQ [DYNC1H1_Y3379_R3384Q] the phosphorylation enrichment was 0.694. With SFLSYYTSHVQ [NEFL_Y443_P440L] the phosphorylation enrichment was 2.19. Work on DDKQPYEKKAE [HMGB1_Y144_A149E] yielded a phosphorylation enrichment of 0.515. Sequence IRTDAYVQAMT [RPE65_Y89_R91Q] has a phosphorylation enrichment of 0.374. For MSIWPYLQKID [MFSD8_Y63], the phosphorylation enrichment was 0.302. For NGRTGYVLQPE [PLCG2_Y1036], the phosphorylation enrichment was 0.399. DGKFSYLKVGH [GRM3_Y480_G475D_YF] showed a phosphorylation enrichment of 0.505. For YRIGPYQPNVP [MATR3_Y784], the phosphorylation enrichment was 0.358.

The sequences below were run on c-Abl (mouse) in the same assay as above.
In the case of RSFSPCDFQPC [TNS1_Y796_Y796C_YF], the phosphorylation enrichment is reported as 0.427. For GESVSYLFSHV [PRPS1_Y311], the phosphorylation enrichment was 0.701. ASELGYVFQAI [UROD_Y133] was tested, and the phosphorylation enrichment was 0.545. Work on GFEVVYVTEPI [HSP90AB1_Y512_M513V] yielded a phosphorylation enrichment of 0.641. Work on FKIFRYTLNDN [FN1_Y1975_L1974R_YF] yielded a phosphorylation enrichment of 0.614. SVTCTYSPALT [TP53_Y126_N131T] showed a phosphorylation enrichment of 1.2. AALKLYHVSDS [VIL1_Y256] showed a phosphorylation enrichment of 0.537. In the case of TFHNTYHSQMR [IL1RAPL1_Y615], the phosphorylation enrichment is reported as 0.612. Work on DGLASYLDKVR [KRT12_Y139_R135G] yielded a phosphorylation enrichment of 0.685. LSIQTYSALNF [DES_Y423_P419S] showed a phosphorylation enrichment of 1.46. With TPLSAYQIPRT [GAB2_Y324] the phosphorylation enrichment was 8.8. In the case of ADNQRYAFMPL [TMEM87B_Y460_N456D], the phosphorylation enrichment is reported as 0.781. With TGILLYGLASR [QARS1_Y57] the phosphorylation enrichment was 0.756. Sequence TVLEPYADPYY [ZC3H18_Y367] has a phosphorylation enrichment of 1.25. In the case of WQQQSYLDSGS [CTNNB1_Y30_I35S], the phosphorylation enrichment is reported as 0.56. DPHQQYFIAMD [TBX15_Y159_YF] gave a phosphorylation enrichment of 0.792. For VMIYAYLLHRG [PTEN_Y138_C136Y], the phosphorylation enrichment was 0.748. With SGPRRYNIAAL [TTR_Y125_T126N] the phosphorylation enrichment was 0.452. EQLRAYLEGEC [HLA-C_Y183_T187E] showed a phosphorylation enrichment of 1.15. HQNGTYGLHQD [SGSH_Y89_M88T] was tested, and the phosphorylation enrichment was 0.555. With KYVKMCDNHQL [MYO9A_Y203_Y203C] the phosphorylation enrichment was 0.512. Work on RLLVLYPWTQR [HBB_Y36_V35L] yielded a phosphorylation enrichment of 0.558. Sequence IGMSSYVMLAS [GGCX_Y301_F299S] has a phosphorylation enrichment of 0.875. DTCPPYVLSQV [GJB4_Y237_G242V] showed a phosphorylation enrichment of 0.668. Sequence TGTQLYGRFGS [ITGA2B_Y384] has a phosphorylation enrichment of 0.404. For NPSYNYEIVNQ [DYNC1H1_Y3379_R3384Q], the phosphorylation enrichment was 0.55. Sequence SFLSYYTSHVQ [NEFL_Y443_P440L] has a phosphorylation enrichment of 0.828. Work on DDKQPYEKKAE [HMGB1_Y144_A149E] yielded a phosphorylation enrichment of 0.828. IRTDAYVQAMT [RPE65_Y89_R91Q] was tested, and the phosphorylation enrichment was 0.572. MSIWPYLQKID [MFSD8_Y63] showed a phosphorylation enrichment of 0.699. NGRTGYVLQPE [PLCG2_Y1036] gave a phosphorylation enrichment of 0.494. In the case of DGKFSYLKVGH [GRM3_Y480_G475D_YF], the phosphorylation enrichment is reported as 0.575. In the case of YRIGPYQPNVP [MATR3_Y784], the phosphorylation enrichment is reported as 0.501.

— the supplement of paper PMC10065799, “High-throughput profiling of sequence recognition by tyrosine kinases and SH2 domains using bacterial peptide display” (eLife, 2023)
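Further: 11-residue human phosphosite peptides and single-mutation variants displayed on the E. coli surface, counted by deep sequencing, each peptide's frequency after selection divided by its frequency in the unselected input library; frequency after pTyr selection over input frequency; kinase dosed for 20-30% of maximal phosphorylation in three min.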
